Data as given in US20240279318A1 (NANJING LEGEND BIOTECH, published 2024).

Experiments:
[1] = biological target: T1, AFP158/HLA-A*02:01 complex (human); assay: SPR, crude scFv captured, pMHC analyte;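 note: complex injected at several concentrations over the chip, association phase then running buffer for dissociation, KD derived from on- and off-rates computed from both curves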
T1 construct: flowed as analyte in SPR

[2] = biological target: T1, AFP158/HLA-A*02:01 complex; assay: SPR, fold vs AS170036 VL1VH1;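 note: crude scFv muteins immobilised on a sensor chip, peptide–MHC complex passed over at several concentrations, binding then buffer-driven dissociation, KD estimated from on- and off-rates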
Description: The experiment was carried out as follows. The crude scFv protein were captured onto the sensorchip. Different concentrations (320, 160, 40 nM) of AFP158/HLA-A*02:01 complex flowed over the sensorchip surface, and were allowed to bind the antibody fragment for 100 s followed by injection of the running buffer to allow dissociation of the complex. On-rate (kd) and off-rate (kd) were calculated based on association and dissociation curve, and were used to estimate the equilibrium dissociation constant (KD).
The crude scFv muteins were then subjected to SPR affinity measurement by the method mentioned above.

Binder	Kd [1] [nM]	koff [1] [s⁻¹]	kon [1] [M⁻¹ s⁻¹]	Affinity increase [2] [fold]
AS170036 VL1VH1-57K98I108D (scFv, also called 71-AS170036 VL1VH1-57K98I108D) scFv: QSALTQPRSVSGSPGQSVTISCAGTSSDVGSENYVSWYQQHPGKAPKLMIYQVNKRASGVPDRFSGSKSGNTASLTISGLQAEDEADYYCASYRSSDINIVFGGGTKLTVLGGGGSGGGGSGGGGSEVQLVESGGGLVQPGGSLRLSCAASGFTFSSYAMSWVRQAPGKGLEWVSTINSGTGKPYYADSVKGRFTISRDNSKNTLYLQMNSLRAEDTAVYYCAKNFFDGSWFLDPPAMDYWGQGTLVTVSSHHHHHH	5.8	0.0012	210000	38.7
AS170036 VL1VH1-57K98Q108S (scFv, also called 75-AS170036 VL1VH1-57K98Q108S) scFv: QSALTQPRSVSGSPGQSVTISCAGTSSDVGSENYVSWYQQHPGKAPKLMIYQVNKRASGVPDRFSGSKSGNTASLTISGLQAEDEADYYCASYRSSDQNIVFGGGTKLTVLGGGGSGGGGSGGGGSEVQLVESGGGLVQPGGSLRLSCAASGFTFSSYAMSWVRQAPGKGLEWVSTINSGTGKPYYADSVKGRFTISRDNSKNTLYLQMNSLRAEDTAVYYCAKNFFDGSWFLSPPAMDYWGQGTLVTVSSHHHHHH	6.8	0.00086	130000	33
AS170036 VL1VH1-57M98F108D (scFv, also called 77-AS170036 VL1VH1-57M98F108D) scFv: QSALTQPRSVSGSPGQSVTISCAGTSSDVGSENYVSWYQQHPGKAPKLMIYQVNKRASGVPDRFSGSKSGNTASLTISGLQAEDEADYYCASYRSSDFNIVFGGGTKLTVLGGGGSGGGGSGGGGSEVQLVESGGGLVQPGGSLRLSCAASGFTFSSYAMSWVRQAPGKGLEWVSTINSGTGMPYYADSVKGRFTISRDNSKNTLYLQMNSLRAEDTAVYYCAKNFFDGSWFLDPPAMDYWGQGTLVTVSSHHHHHH	6.2	0.0018	280000	36.2
AS170036 VL1VH1-57K98I108S (scFv, also called 72-AS170036 VL1VH1-57K98I108S) scFv: QSALTQPRSVSGSPGQSVTISCAGTSSDVGSENYVSWYQQHPGKAPKLMIYQVNKRASGVPDRFSGSKSGNTASLTISGLQAEDEADYYCASYRSSDINIVFGGGTKLTVLGGGGSGGGGSGGGGSEVQLVESGGGLVQPGGSLRLSCAASGFTFSSYAMSWVRQAPGKGLEWVSTINSGTGKPYYADSVKGRFTISRDNSKNTLYLQMNSLRAEDTAVYYCAKNFFDGSWFLSPPAMDYWGQGTLVTVSSHHHHHH	11	0.0013	120000	21
AS170036 VL1VH1-57K98F108S (scFv, also called 69-AS170036 VL1VH1-57K98F108S) scFv: QSALTQPRSVSGSPGQSVTISCAGTSSDVGSENYVSWYQQHPGKAPKLMIYQVNKRASGVPDRFSGSKSGNTASLTISGLQAEDEADYYCASYRSSDFNIVFGGGTKLTVLGGGGSGGGGSGGGGSEVQLVESGGGLVQPGGSLRLSCAASGFTFSSYAMSWVRQAPGKGLEWVSTINSGTGKPYYADSVKGRFTISRDNSKNTLYLQMNSLRAEDTAVYYCAKNFFDGSWFLSPPAMDYWGQGTLVTVSSHHHHHH	8.3	0.0014	160000	27
AS170036 VL1VH1-57M98Q108D (scFv, also called 83-AS170036 VL1VH1-57M98Q108D) scFv: QSALTQPRSVSGSPGQSVTISCAGTSSDVGSENYVSWYQQHPGKAPKLMIYQVNKRASGVPDRFSGSKSGNTASLTISGLQAEDEADYYCASYRSSDQNIVFGGGTKLTVLGGGGSGGGGSGGGGSEVQLVESGGGLVQPGGSLRLSCAASGFTFSSYAMSWVRQAPGKGLEWVSTINSGTGMPYYADSVKGRFTISRDNSKNTLYLQMNSLRAEDTAVYYCAKNFFDGSWFLDPPAMDYWGQGTLVTVSSHHHHHH	7.6	0.0018	240000	29.6
AS170036 VL1VH1-57M98Q108A (scFv, also called 82-AS170036 VL1VH1-57M98Q108A) scFv: QSALTQPRSVSGSPGQSVTISCAGTSSDVGSENYVSWYQQHPGKAPKLMIYQVNKRASGVPDRFSGSKSGNTASLTISGLQAEDEADYYCASYRSSDQNIVFGGGTKLTVLGGGGSGGGGSGGGGSEVQLVESGGGLVQPGGSLRLSCAASGFTFSSYAMSWVRQAPGKGLEWVSTINSGTGMPYYADSVKGRFTISRDNSKNTLYLQMNSLRAEDTAVYYCAKNFFDGSWFLAPPAMDYWGQGTLVTVSSHHHHHH	5.2	0.0012	220000	43
AS170036 VL1VH1-57M98I108D (scFv, also called 80-AS170036 VL1VH1-57M98I108D) scFv: QSALTQPRSVSGSPGQSVTISCAGTSSDVGSENYVSWYQQHPGKAPKLMIYQVNKRASGVPDRFSGSKSGNTASLTISGLQAEDEADYYCASYRSSDINIVFGGGTKLTVLGGGGSGGGGSGGGGSEVQLVESGGGLVQPGGSLRLSCAASGFTFSSYAMSWVRQAPGKGLEWVSTINSGTGMPYYADSVKGRFTISRDNSKNTLYLQMNSLRAEDTAVYYCAKNFFDGSWFLDPPAMDYWGQGTLVTVSSHHHHHH	11	0.0029	260000	20.5
AS170036 VL1VH1-57M98F108S (scFv, also called 78-AS170036 VL1VH1-57M98F108S) scFv: QSALTQPRSVSGSPGQSVTISCAGTSSDVGSENYVSWYQQHPGKAPKLMIYQVNKRASGVPDRFSGSKSGNTASLTISGLQAEDEADYYCASYRSSDFNIVFGGGTKLTVLGGGGSGGGGSGGGGSEVQLVESGGGLVQPGGSLRLSCAASGFTFSSYAMSWVRQAPGKGLEWVSTINSGTGMPYYADSVKGRFTISRDNSKNTLYLQMNSLRAEDTAVYYCAKNFFDGSWFLSPPAMDYWGQGTLVTVSSHHHHHH	13	0.0024	190000	18
AS170036 VL1VH1-57M98I108A (scFv, also called 79-AS170036 VL1VH1-57M98I108A) scFv: QSALTQPRSVSGSPGQSVTISCAGTSSDVGSENYVSWYQQHPGKAPKLMIYQVNKRASGVPDRFSGSKSGNTASLTISGLQAEDEADYYCASYRSSDINIVFGGGTKLTVLGGGGSGGGGSGGGGSEVQLVESGGGLVQPGGSLRLSCAASGFTFSSYAMSWVRQAPGKGLEWVSTINSGTGMPYYADSVKGRFTISRDNSKNTLYLQMNSLRAEDTAVYYCAKNFFDGSWFLAPPAMDYWGQGTLVTVSSHHHHHH	8.1	0.0018	220000	28

Other lines, results leading:

Kd [1] [nM]	koff [1] [s⁻¹]	kon [1] [M⁻¹ s⁻¹]	Affinity increase [2] [fold]	Binder
4	0.00065	160000	56.3	AS170036 VL1VH1-57H98Q108S (scFv, also called 66-AS170036 VL1VH1-57H98Q108S) scFv: QSALTQPRSVSGSPGQSVTISCAGTSSDVGSENYVSWYQQHPGKAPKLMIYQVNKRASGVPDRFSGSKSGNTASLTISGLQAEDEADYYCASYRSSDQNIVFGGGTKLTVLGGGGSGGGGSGGGGSEVQLVESGGGLVQPGGSLRLSCAASGFTFSSYAMSWVRQAPGKGLEWVSTINSGTGHPYYADSVKGRFTISRDNSKNTLYLQMNSLRAEDTAVYYCAKNFFDGSWFLSPPAMDYWGQGTLVTVSSHHHHHH
4.1	0.001	250000	54.5	AS170036 VL1VH1-57K98F108D (scFv, also called 68-AS170036 VL1VH1-57K98F108D) scFv: QSALTQPRSVSGSPGQSVTISCAGTSSDVGSENYVSWYQQHPGKAPKLMIYQVNKRASGVPDRFSGSKSGNTASLTISGLQAEDEADYYCASYRSSDFNIVFGGGTKLTVLGGGGSGGGGSGGGGSEVQLVESGGGLVQPGGSLRLSCAASGFTFSSYAMSWVRQAPGKGLEWVSTINSGTGKPYYADSVKGRFTISRDNSKNTLYLQMNSLRAEDTAVYYCAKNFFDGSWFLDPPAMDYWGQGTLVTVSSHHHHHH
5.2	0.0013	260000	43.4	AS170036 VL1VH1-57M98F108A (scFv, also called 76-AS170036 VL1VH1-57M98F108A) scFv: QSALTQPRSVSGSPGQSVTISCAGTSSDVGSENYVSWYQQHPGKAPKLMIYQVNKRASGVPDRFSGSKSGNTASLTISGLQAEDEADYYCASYRSSDFNIVFGGGTKLTVLGGGGSGGGGSGGGGSEVQLVESGGGLVQPGGSLRLSCAASGFTFSSYAMSWVRQAPGKGLEWVSTINSGTGMPYYADSVKGRFTISRDNSKNTLYLQMNSLRAEDTAVYYCAKNFFDGSWFLAPPAMDYWGQGTLVTVSSHHHHHH
2.8	0.00053	190000	80.4	AS170036 VL1VH1-57K98Q108A (scFv, also called 73-AS170036 VL1VH1-57K98Q108A) scFv: QSALTQPRSVSGSPGQSVTISCAGTSSDVGSENYVSWYQQHPGKAPKLMIYQVNKRASGVPDRFSGSKSGNTASLTISGLQAEDEADYYCASYRSSDQNIVFGGGTKLTVLGGGGSGGGGSGGGGSEVQLVESGGGLVQPGGSLRLSCAASGFTFSSYAMSWVRQAPGKGLEWVSTINSGTGKPYYADSVKGRFTISRDNSKNTLYLQMNSLRAEDTAVYYCAKNFFDGSWFLAPPAMDYWGQGTLVTVSSHHHHHH
4.3	0.00082	190000	52.6	AS170036 VL1VH1-57K98I108A (scFv, also called 70-AS170036 VL1VH1-57K98I108A) scFv: QSALTQPRSVSGSPGQSVTISCAGTSSDVGSENYVSWYQQHPGKAPKLMIYQVNKRASGVPDRFSGSKSGNTASLTISGLQAEDEADYYCASYRSSDINIVFGGGTKLTVLGGGGSGGGGSGGGGSEVQLVESGGGLVQPGGSLRLSCAASGFTFSSYAMSWVRQAPGKGLEWVSTINSGTGKPYYADSVKGRFTISRDNSKNTLYLQMNSLRAEDTAVYYCAKNFFDGSWFLAPPAMDYWGQGTLVTVSSHHHHHH
3.8	0.00077	200000	58.7	AS170036 VL1VH1-57K98Q108D (scFv, also called 74-AS170036 VL1VH1-57K98Q108D) scFv: QSALTQPRSVSGSPGQSVTISCAGTSSDVGSENYVSWYQQHPGKAPKLMIYQVNKRASGVPDRFSGSKSGNTASLTISGLQAEDEADYYCASYRSSDQNIVFGGGTKLTVLGGGGSGGGGSGGGGSEVQLVESGGGLVQPGGSLRLSCAASGFTFSSYAMSWVRQAPGKGLEWVSTINSGTGKPYYADSVKGRFTISRDNSKNTLYLQMNSLRAEDTAVYYCAKNFFDGSWFLDPPAMDYWGQGTLVTVSSHHHHHH
3.5	0.00079	230000	64.3	AS170036 VL1VH1-57K98F108A (scFv, also called 67-AS170036 VL1VH1-57K98F108A) scFv: QSALTQPRSVSGSPGQSVTISCAGTSSDVGSENYVSWYQQHPGKAPKLMIYQVNKRASGVPDRFSGSKSGNTASLTISGLQAEDEADYYCASYRSSDFNIVFGGGTKLTVLGGGGSGGGGSGGGGSEVQLVESGGGLVQPGGSLRLSCAASGFTFSSYAMSWVRQAPGKGLEWVSTINSGTGKPYYADSVKGRFTISRDNSKNTLYLQMNSLRAEDTAVYYCAKNFFDGSWFLAPPAMDYWGQGTLVTVSSHHHHHH
